Results published in PMC9561264, “Direct hOGG1-Myc interactions inhibit hOGG1 catalytic activity and recruit Myc to its promoters under oxidative stress”.

Experiments:
[1] = target: T1, hOGG1 wild type;c-Myc (human;human?, UniProt O15527;P01106 1-345;16-454, |); test: EMSA; 300 nM each; oxidising and reducing (less stable reducing); FP at 25°C with 5 nM labelled DNA; EMSA room temp 30 min, 15% native PAGE 0.5x TBE 4°C; interaction buffer 20 mM Tris-HCl pH 7.6, 200 mM NaCl (Fig. S12); reducing (5 mM DTT in EMSA) or oxidising (pre-oxidised hOGG1); settings: protein: recombinant;commercial; tags: N-terminal His6 (removed by protease where required);GST; quantum dot in E-box AFM; label: 5' AF647 (FP) or Cy3 (EMSA) on bottom strand; blunt
T1 sequence (O15527 whole entry, chain 1 of 2): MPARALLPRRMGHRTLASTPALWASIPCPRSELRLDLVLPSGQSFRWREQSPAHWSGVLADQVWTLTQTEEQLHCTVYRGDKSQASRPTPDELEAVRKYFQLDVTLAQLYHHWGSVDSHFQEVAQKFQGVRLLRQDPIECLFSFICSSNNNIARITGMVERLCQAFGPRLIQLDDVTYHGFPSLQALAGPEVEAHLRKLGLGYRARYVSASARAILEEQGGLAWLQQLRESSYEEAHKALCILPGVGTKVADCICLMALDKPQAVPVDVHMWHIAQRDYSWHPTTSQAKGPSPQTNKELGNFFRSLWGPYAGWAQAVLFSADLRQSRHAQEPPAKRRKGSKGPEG
T1 sequence (P01106 16-454, chain 2 of 2): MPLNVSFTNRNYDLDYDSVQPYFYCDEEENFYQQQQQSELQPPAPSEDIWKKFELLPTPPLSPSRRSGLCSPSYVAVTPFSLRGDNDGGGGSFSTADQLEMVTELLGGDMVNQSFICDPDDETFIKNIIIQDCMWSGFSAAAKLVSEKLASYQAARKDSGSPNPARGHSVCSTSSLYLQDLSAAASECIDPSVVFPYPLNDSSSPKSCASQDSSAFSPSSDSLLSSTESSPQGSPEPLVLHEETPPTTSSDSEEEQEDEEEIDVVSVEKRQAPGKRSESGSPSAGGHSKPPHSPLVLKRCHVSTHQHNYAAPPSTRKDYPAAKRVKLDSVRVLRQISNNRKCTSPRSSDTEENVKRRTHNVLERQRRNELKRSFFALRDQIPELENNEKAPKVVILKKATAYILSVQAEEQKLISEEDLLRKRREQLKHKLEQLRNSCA

[2] = target: T2, hOGG1 K249Q (human, UniProt O15527 1-345, K249Q); test: fluorescence polarisation; oxidising; FP at 25°C with 5 nM labelled DNA; EMSA room temp 30 min, 15% native PAGE 0.5x TBE 4°C; interaction buffer 20 mM Tris-HCl pH 7.6, 200 mM NaCl (Fig. S12); reducing (5 mM DTT in EMSA) or oxidising (pre-oxidised hOGG1); settings: protein: recombinant; tags: N-terminal His6 (removed where required); label: 5' AF647 (FP) or Cy3 (EMSA) on bottom strand; blunt
T2 sequence (O15527 whole entry K249Q): as the sequence (O15527 whole entry, chain 1 of 2) above, with K249Q counted along it

[3] = target: T3, hOGG1 C28A (human, UniProt O15527 1-345, C28A); test: as above; settings: protein: recombinant; tags: N-terminal His6 (removed where required); label: 5' AF647 (FP) or Cy3 (EMSA) on bottom strand; blunt
T3 sequence (O15527 whole entry C28A): as the sequence (O15527 whole entry, chain 1 of 2) above, with C28A counted along it

[4] = target: hOGG1 C253A (human, UniProt O15527 1-345, C253A); test: fluorescence polarisation; reducing; FP at 25°C with 5 nM labelled DNA; EMSA room temp 30 min, 15% native PAGE 0.5x TBE 4°C; interaction buffer 20 mM Tris-HCl pH 7.6, 200 mM NaCl (Fig. S12); reducing (5 mM DTT in EMSA) or oxidising (pre-oxidised hOGG1); settings: protein: recombinant; tags: N-terminal His6 (removed where required); label: 5' AF647 (FP) or Cy3 (EMSA) on bottom strand; blunt
Sequence of hOGG1 C253A (O15527 whole entry C253A): as the sequence (O15527 whole entry, chain 1 of 2) above, with C253A counted along it

[5] = target: T2, hOGG1 K249Q; test: as above; settings: protein: recombinant; tags: N-terminal His6 (removed where required); label: 5' AF647 (FP) or Cy3 (EMSA) on bottom strand; blunt
[6] = target: T3, hOGG1 C28A; test: as above; settings: protein: recombinant; tags: N-terminal His6 (removed where required); label: 5' AF647 (FP) or Cy3 (EMSA) on bottom strand; blunt
[7] = target: T1, hOGG1 wild type;c-Myc; test: EMSA; less stable under reducing conditions; FP at 25°C with 5 nM labelled DNA; EMSA room temp 30 min, 15% native PAGE 0.5x TBE 4°C; interaction buffer 20 mM Tris-HCl pH 7.6, 200 mM NaCl (Fig. S12); reducing (5 mM DTT in EMSA) or oxidising (pre-oxidised hOGG1); settings: protein: recombinant;commercial; tags: N-terminal His6 (removed by protease where required);GST; quantum dot in E-box AFM; label: 5' AF647 (FP) or Cy3 (EMSA) on bottom strand; blunt

B1: oxoG 48 bp (EMSA/FP) (dsDNA)
DNA 1: GCATGCCTCGAGTCTAGAGGTACCAGATCTGATCCTCTAGAGTCGACC
DNA 2: GGTCGACTCTAGAGGATCAGATCTGGTACCTCTAGACTCGAGGCATGC
modifications: 8-oxoguanine at position 10 of strand 1 (written G)
B1 was tested, and the binding result [1] was “binds”, the Kd [2] was 95 ± 5 nM and the Kd [3] was 61 ± 11 nM. For the same binder, the Kd [4] was 99 ± 24 nM, the Kd [5] was 42 ± 3 nM and the Kd [6] was 65 ± 8 nM.

B2: undamaged (nsp) 48 bp (dsDNA)
DNA 1: GCATGCCTCGAGTCTAGAGGTACCAGATCTGATCCTCTAGAGTCGACC
DNA 2: GGTCGACTCTAGAGGATCAGATCTGGTACCTCTAGACTCGAGGCATGC
B2: binds [7].
